Laboratory results reported in FireProtDB (doi:10.1016/j.jmb.2007.09.088).

Settings: Niallia circulans; pH 5; 25 °C; Urea; Fluorescence; Sodium acetate 50mM; transition: 2; reversible: yes; structure 1K85

Sequence of Chitinase A1 V642A, P20533 (P20533 whole entry V642A): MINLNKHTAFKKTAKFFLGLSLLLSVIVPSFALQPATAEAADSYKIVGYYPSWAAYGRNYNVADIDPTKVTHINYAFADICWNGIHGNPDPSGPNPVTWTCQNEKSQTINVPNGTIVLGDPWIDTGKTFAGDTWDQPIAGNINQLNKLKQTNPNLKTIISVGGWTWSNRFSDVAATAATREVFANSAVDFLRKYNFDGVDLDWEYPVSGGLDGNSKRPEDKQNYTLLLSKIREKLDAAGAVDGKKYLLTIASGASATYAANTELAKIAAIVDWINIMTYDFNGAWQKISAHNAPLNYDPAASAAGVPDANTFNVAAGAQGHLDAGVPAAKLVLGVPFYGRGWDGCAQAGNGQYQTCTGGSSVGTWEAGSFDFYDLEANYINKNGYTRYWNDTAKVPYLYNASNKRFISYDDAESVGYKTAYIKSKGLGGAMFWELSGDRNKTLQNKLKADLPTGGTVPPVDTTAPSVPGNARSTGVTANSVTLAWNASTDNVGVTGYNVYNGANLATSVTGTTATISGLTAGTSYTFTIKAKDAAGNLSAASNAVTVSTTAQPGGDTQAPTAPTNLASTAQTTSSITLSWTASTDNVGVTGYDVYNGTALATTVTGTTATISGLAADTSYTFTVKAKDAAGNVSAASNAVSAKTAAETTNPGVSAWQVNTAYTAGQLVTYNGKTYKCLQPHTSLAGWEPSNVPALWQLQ
Sequence of Chitinase A1 Y620F, P20533 (P20533 whole entry Y620F): as the sequence (P20533 whole entry V642A) above, with Y620F, A642V counted along it
Sequence of Chitinase A1 Y592L, P20533 (P20533 whole entry Y592L): as the sequence (P20533 whole entry V642A) above, with Y592L, A642V counted along it
Sequence of Chitinase A1 V589A, P20533 (P20533 whole entry V589A): as the sequence (P20533 whole entry V642A) above, with V589A, A642V counted along it
Sequence of Chitinase A1 F622L, P20533 (P20533 whole entry F622L): as the sequence (P20533 whole entry V642A) above, with F622L, A642V counted along it
Sequence of Chitinase A1 L566A, P20533 (P20533 whole entry L566A): as the sequence (P20533 whole entry V642A) above, with L566A, A642V counted along it
Sequence of Chitinase A1 S637A, P20533 (P20533 whole entry S637A): as the sequence (P20533 whole entry V642A) above, with S637A, A642V counted along it
Sequence of Chitinase A1 V624A, P20533 (P20533 whole entry V624A): as the sequence (P20533 whole entry V642A) above, with V624A, A642V counted along it
Sequence of Chitinase A1 S568A, P20533 (P20533 whole entry S568A): as the sequence (P20533 whole entry V642A) above, with S568A, A642V counted along it
Sequence of Chitinase A1 A626G, P20533 (P20533 whole entry A626G): as the sequence (P20533 whole entry V642A) above, with A626G, A642V counted along it
Sequence of Chitinase A1 L614A, P20533 (P20533 whole entry L614A): as the sequence (P20533 whole entry V642A) above, with L614A, A642V counted along it
Sequence of Chitinase A1 L578A, P20533 (P20533 whole entry L578A): as the sequence (P20533 whole entry V642A) above, with L578A, A642V counted along it
Sequence of Chitinase A1 A609G, P20533 (P20533 whole entry A609G): as the sequence (P20533 whole entry V642A) above, with A609G, A642V counted along it
Sequence of Chitinase A1 V640A, P20533 (P20533 whole entry V640A): as the sequence (P20533 whole entry V642A) above, with V640A, A642V counted along it
Sequence of Chitinase A1 Y620L, P20533 (P20533 whole entry Y620L): as the sequence (P20533 whole entry V642A) above, with Y620L, A642V counted along it
Sequence of Chitinase A1 T602A, P20533 (P20533 whole entry T602A): as the sequence (P20533 whole entry V642A) above, with T602A, A642V counted along it
Sequence of Chitinase A1 Y592F, P20533 (P20533 whole entry Y592F): as the sequence (P20533 whole entry V642A) above, with Y592F, A642V counted along it
Sequence of Chitinase A1 I576A, P20533 (P20533 whole entry I576A): as the sequence (P20533 whole entry V642A) above, with I576A, A642V counted along it
Sequence of Chitinase A1 I611A, P20533 (P20533 whole entry I611A): as the sequence (P20533 whole entry V642A) above, with I611A, A642V counted along it
Sequence of Chitinase A1 V604A, P20533 (P20533 whole entry V604A): as the sequence (P20533 whole entry V642A) above, with V604A, A642V counted along it
Sequence of Chitinase A1 N596A, P20533 (P20533 whole entry N596A): as the sequence (P20533 whole entry V642A) above, with N596A, A642V counted along it
Sequence of Chitinase A1 V594A, P20533 (P20533 whole entry V594A): as the sequence (P20533 whole entry V642A) above, with V594A, A642V counted along it

First: Chitinase A1 A609G, P20533
Second: Chitinase A1 A626G, P20533
The “ddG of mutation (higher = less stable)” value of the first is higher: 2.33 kcal/mol for the first, 1.88 kcal/mol for the second.

First: Chitinase A1 F622L, P20533
Second: Chitinase A1 I576A, P20533
The “ddG of mutation (higher = less stable)” value of the first is lower: 2.5 kcal/mol for the first, 3.11 kcal/mol for the second.

Compared with Chitinase A1 I611A, P20533, Chitinase A1 L566A, P20533 is lower in “ddG of mutation (higher = less stable)” value: 3.63 kcal/mol for the first, 2.52 kcal/mol for the second.

Going from Chitinase A1 L578A, P20533 to Chitinase A1 L614A, P20533, the “ddG of mutation (higher = less stable)” value falls from 5.54 kcal/mol to 5.26 kcal/mol.

First: Chitinase A1 N596A, P20533
Second: Chitinase A1 S568A, P20533
The “ddG of mutation (higher = less stable)” value of the first is higher: 1 kcal/mol for the first, -0.1 kcal/mol for the second.

Going from Chitinase A1 S637A, P20533 to Chitinase A1 T602A, P20533, the “ddG of mutation (higher = less stable)” value falls from 1.42 kcal/mol to -1.49 kcal/mol.

First: Chitinase A1 V589A, P20533
Second: Chitinase A1 V594A, P20533
The “ddG of mutation (higher = less stable)” value of the first is lower: 1.77 kcal/mol for the first, 4.19 kcal/mol for the second.

First: Chitinase A1 V604A, P20533
Second: Chitinase A1 V624A, P20533
The “ddG of mutation (higher = less stable)” value of the first is lower: 1.58 kcal/mol for the first, 4.07 kcal/mol for the second.

Compared with Chitinase A1 V640A, P20533, Chitinase A1 V642A, P20533 is lower in “ddG of mutation (higher = less stable)” value: 1.66 kcal/mol for the first, 1.44 kcal/mol for the second.

Going from Chitinase A1 Y592F, P20533 to Chitinase A1 Y592L, P20533, the “ddG of mutation (higher = less stable)” value rises from 1.77 kcal/mol to 5.97 kcal/mol.

First: Chitinase A1 Y620F, P20533
Second: Chitinase A1 Y620L, P20533
The “ddG of mutation (higher = less stable)” value of the first is lower: 1.52 kcal/mol for the first, 4.38 kcal/mol for the second.

First: Chitinase A1 A609G, P20533
Second: Chitinase A1 A626G, P20533
The denaturant m value of the first is lower: 1.18 kcal/mol/M for the first, 1.22 kcal/mol/M for the second.

First: Chitinase A1 F622L, P20533
Second: Chitinase A1 I576A, P20533
The denaturant m value of the first is lower: 1.08 kcal/mol/M for the first, 1.15 kcal/mol/M for the second.

First: Chitinase A1 I611A, P20533
Second: Chitinase A1 L566A, P20533
The denaturant m value of the first is lower: 1.13 kcal/mol/M for the first, 1.19 kcal/mol/M for the second.

Going from Chitinase A1 L578A, P20533 to Chitinase A1 L614A, P20533, the denaturant m value falls from 1.16 kcal/mol/M to 1.13 kcal/mol/M.

Going from Chitinase A1 N596A, P20533 to Chitinase A1 S568A, P20533, the denaturant m value rises from 0.99 kcal/mol/M to 1 kcal/mol/M.

Going from Chitinase A1 S637A, P20533 to Chitinase A1 T602A, P20533, the denaturant m value falls from 1.13 kcal/mol/M to 0.89 kcal/mol/M.

Compared with Chitinase A1 V589A, P20533, Chitinase A1 V594A, P20533 is higher in denaturant m value: 1.16 kcal/mol/M for the first, 1.27 kcal/mol/M for the second.

Compared with Chitinase A1 V604A, P20533, Chitinase A1 V624A, P20533 is higher in denaturant m value: 1.1 kcal/mol/M for the first, 1.19 kcal/mol/M for the second.

Going from Chitinase A1 V640A, P20533 to Chitinase A1 V642A, P20533, the denaturant m value falls from 1.22 kcal/mol/M to 1.15 kcal/mol/M.

Compared with Chitinase A1 Y592F, P20533, Chitinase A1 Y592L, P20533 is higher in denaturant m value: 1.25 kcal/mol/M for the first, 1.46 kcal/mol/M for the second.

Going from Chitinase A1 Y620F, P20533 to Chitinase A1 Y620L, P20533, the denaturant m value falls from 1.31 kcal/mol/M to 1.26 kcal/mol/M.

Chitinase A1 A609G, P20533 and Chitinase A1 A626G, P20533 are within 1.5-fold of each other in “denaturant midpoint (higher = more stable)” value (“denaturant midpoint” for short): 4.18 M for the first, 4.57 M for the second.

Chitinase A1 F622L, P20533 and Chitinase A1 I576A, P20533 are within 1.5-fold of each other in “denaturant midpoint” value: 4.03 M for the first, 3.5 M for the second.

Chitinase A1 I611A, P20533 and Chitinase A1 L566A, P20533 are within 1.5-fold of each other in “denaturant midpoint” value: 3.05 M for the first, 4.01 M for the second.

Chitinase A1 L578A, P20533 and Chitinase A1 L614A, P20533 are within 1.5-fold of each other in “denaturant midpoint” value: 1.39 M for the first, 1.63 M for the second.

Chitinase A1 N596A, P20533 and Chitinase A1 S568A, P20533 are within 1.5-fold of each other in “denaturant midpoint” value: 5.33 M for the first, 6.29 M for the second.

First: Chitinase A1 S637A, P20533
Second: Chitinase A1 T602A, P20533
The “denaturant midpoint” value of the first is 1.5-fold lower: 4.97 M for the first, 7.49 M for the second.

First: Chitinase A1 V589A, P20533
Second: Chitinase A1 V594A, P20533
The “denaturant midpoint” value of the first is 1.8-fold higher: 4.66 M for the first, 2.56 M for the second.

First: Chitinase A1 V604A, P20533
Second: Chitinase A1 V624A, P20533
The “denaturant midpoint” value of the first is 1.8-fold higher: 4.83 M for the first, 2.67 M for the second.

Chitinase A1 V640A, P20533 and Chitinase A1 V642A, P20533 are within 1.5-fold of each other in “denaturant midpoint” value: 4.76 M for the first, 4.95 M for the second.

Going from Chitinase A1 Y592F, P20533 to Chitinase A1 Y592L, P20533, the “denaturant midpoint” value falls from 4.66 M to 1.02 M (4.6-fold).

Compared with Chitinase A1 Y620F, P20533, Chitinase A1 Y620L, P20533 is 2-fold lower in “denaturant midpoint” value: 4.88 M for the first, 2.4 M for the second.

First: Chitinase A1 A609G, P20533
Second: Chitinase A1 A626G, P20533
The unfolding free energy of the first is lower: 4.37 kcal/mol for the first, 4.82 kcal/mol for the second.

Compared with Chitinase A1 F622L, P20533, Chitinase A1 I576A, P20533 is lower in unfolding free energy: 4.2 kcal/mol for the first, 3.59 kcal/mol for the second.

First: Chitinase A1 I611A, P20533
Second: Chitinase A1 L566A, P20533
The unfolding free energy of the first is lower: 3.07 kcal/mol for the first, 4.18 kcal/mol for the second.

Compared with Chitinase A1 L578A, P20533, Chitinase A1 L614A, P20533 is higher in unfolding free energy: 1.16 kcal/mol for the first, 1.44 kcal/mol for the second.

Compared with Chitinase A1 N596A, P20533, Chitinase A1 S568A, P20533 is higher in unfolding free energy: 5.7 kcal/mol for the first, 6.8 kcal/mol for the second.

Going from Chitinase A1 S637A, P20533 to Chitinase A1 T602A, P20533, the unfolding free energy rises from 5.28 kcal/mol to 8.19 kcal/mol.

Going from Chitinase A1 V589A, P20533 to Chitinase A1 V594A, P20533, the unfolding free energy falls from 4.93 kcal/mol to 2.51 kcal/mol.

Going from Chitinase A1 V604A, P20533 to Chitinase A1 V624A, P20533, the unfolding free energy falls from 5.12 kcal/mol to 2.63 kcal/mol.

Going from Chitinase A1 V640A, P20533 to Chitinase A1 V642A, P20533, the unfolding free energy rises from 5.04 kcal/mol to 5.26 kcal/mol.

Compared with Chitinase A1 Y592F, P20533, Chitinase A1 Y592L, P20533 is lower in unfolding free energy: 4.93 kcal/mol for the first, 0.73 kcal/mol for the second.

Compared with Chitinase A1 Y620F, P20533, Chitinase A1 Y620L, P20533 is lower in unfolding free energy: 5.18 kcal/mol for the first, 2.32 kcal/mol for the second.
